Measurements published in paper PMC9896810, “Crk proteins activate the Rap1 guanine nucleotide exchange factor C3G by segregated adaptor-dependent and -independent mechanisms” (Cell Communication and Signaling : CCS, 2023).
Residue numbers refer to the chain shown, from its start.

Legend:
C3G-AAPA-Y554H = target: T1, C3G-AAPA-Y554H (human, UniProt Q13905-1 4-1077, P283A | P284A | L286 | P287 | P289A | P453A | P454A | L456A | P457A | K459A | …); experiment: ITC; single-PRM mutant of C3G in the cell titrated with CrkL or CrkL-SH3N, 25 °C, 300 mM NaCl, pH 7.5; SEDPHAT, 1:1 heteroassociation model; N is the competent fraction of C3G; conditions: both partners purified
T1 construct: human C3G isoform a, residues 4-1077; source: E. coli BL21 (DE3), purified (IMAC, TEV digestion, reversed IMAC, SEC); not shown: His, N-terminal, cleaved; Halo, N-terminal, cleaved
T1 sequence (looked up): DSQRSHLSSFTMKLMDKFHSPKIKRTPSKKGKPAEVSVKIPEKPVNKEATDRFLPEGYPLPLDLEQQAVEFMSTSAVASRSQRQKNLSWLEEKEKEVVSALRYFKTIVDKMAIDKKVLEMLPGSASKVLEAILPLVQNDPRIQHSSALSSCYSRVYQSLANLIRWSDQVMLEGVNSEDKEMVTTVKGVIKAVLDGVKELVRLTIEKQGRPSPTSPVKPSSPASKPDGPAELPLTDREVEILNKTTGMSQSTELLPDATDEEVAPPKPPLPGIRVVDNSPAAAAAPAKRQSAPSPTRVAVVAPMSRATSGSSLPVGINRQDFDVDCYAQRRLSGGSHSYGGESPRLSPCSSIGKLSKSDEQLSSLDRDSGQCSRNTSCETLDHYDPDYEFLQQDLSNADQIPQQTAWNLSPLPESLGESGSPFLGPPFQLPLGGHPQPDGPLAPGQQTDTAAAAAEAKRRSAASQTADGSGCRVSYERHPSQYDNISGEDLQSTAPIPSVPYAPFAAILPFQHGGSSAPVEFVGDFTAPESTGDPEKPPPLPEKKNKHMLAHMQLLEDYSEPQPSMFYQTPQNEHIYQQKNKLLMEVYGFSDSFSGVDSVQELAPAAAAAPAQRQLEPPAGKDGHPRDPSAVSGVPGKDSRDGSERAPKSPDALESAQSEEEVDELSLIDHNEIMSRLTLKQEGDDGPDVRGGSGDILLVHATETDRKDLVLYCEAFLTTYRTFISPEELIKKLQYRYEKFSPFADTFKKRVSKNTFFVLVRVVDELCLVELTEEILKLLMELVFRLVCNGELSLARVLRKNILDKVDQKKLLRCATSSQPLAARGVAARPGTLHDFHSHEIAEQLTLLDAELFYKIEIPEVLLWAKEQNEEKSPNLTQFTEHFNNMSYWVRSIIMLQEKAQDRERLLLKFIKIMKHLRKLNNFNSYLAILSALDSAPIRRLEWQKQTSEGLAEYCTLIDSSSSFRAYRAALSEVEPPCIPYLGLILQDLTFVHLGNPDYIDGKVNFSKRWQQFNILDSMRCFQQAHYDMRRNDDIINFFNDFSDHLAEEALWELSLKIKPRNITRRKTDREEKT

C3G-AAAP-Y554H = target: T2, C3G-AAAP-Y554H (human, UniProt Q13905-1 4-1077, P283A | P284A | L286 | P287 | P289A | P453A | P454A | L456A | P457A | K459A | …); experiment: as above; conditions: both partners purified
T2 construct: human C3G isoform a, residues 4-1077; source: E. coli BL21 (DE3), purified (IMAC, TEV digestion, reversed IMAC, SEC); not shown: His, N-terminal, cleaved; Halo, N-terminal, cleaved
T2 sequence (looked up): T1 sequence (looked up) with P537A, P538A, L540A, P541A, K543A, A605P, A606P, A608L, A609P, A611K

B1: CrkL-SH3N (domain or fragment, human, UniProt P46109 125-182, looked up)
chain: LEYVRTLYDFPGNDAEDLPFKKGEILVIIEKPEEQWWSARNKDGRVGMIPVPYVEKLV
notes: human CrkL, SH3N domain, residues 125-182, in pETEV15b; source: E. coli BL21 (DE3), purified (IMAC, TEV digestion, SEC); not shown: His, N-terminal, cleaved
stoichiometry N (C3G-AAPA-Y554H): 0.47
Kd (C3G-AAAP-Y554H): 2.4 µM
stoichiometry N (C3G-AAAP-Y554H): 0.57
